# Measurements as given in patent publication US20110118181A1 (INSTITUT DE RECHERHES CLINIQUES DE MONTREAL, published 2011).
# Numbering of substitutions follows the chain as printed. Names may count otherwise.
# B1: AnxA2 77RRTKK>AATAA (HA-tagged) (other)
# chain: MSTVHEILCKLSLEGDHSTPPSAYGSVKAYTNFDAERDALNIETAIKTKGVDEVTIVNILTNRSNAQRQDIAFAYQAATAAELASALKSALSGHLETVILGLLKTPAQYDASELKASMKGLGTDEDSLIEIICSRTNQELQEINRVYKEMYKTDLEKDIISDTSGDFRKLMVALAKGRRAEDGSVIDYELIDQDARDLYDAGVKRKGTDVPKWISIMTERSVPHLQKVFDRYKSYSPYDMLESIRKEVKGDLENAFLNLVQCIQNKPLYFADRLYDSMKGKGTRDKVLIRIMVSRSEVDMLKIRSEFKRKYGKSLYYYIQQDTKGDYQKALLYLCGGDDYPYDVPDYA
# notes: also called 77AATAA81
# B2: AnxA2 Δ25-36-HA (other)
# chain: MSTVHEILCKLSLEGDHSTPPSAYRDALNIETAIKTKGVDEVTIVNILTNRSNAQRQDIAFAYQRRTKKELASALKSALSGHLETVILGLLKTPAQYDASELKASMKGLGTDEDSLIEIICSRTNQELQEINRVYKEMYKTDLEKDIISDTSGDFRKLMVALAKGRRAEDGSVIDYELIDQDARDLYDAGVKRKGTDVPKWISIMTERSVPHLQKVFDRYKSYSPYDMLESIRKEVKGDLENAFLNLVQCIQNKPLYFADRLYDSMKGKGTRDKVLIRIMVSRSEVDMLKIRSEFKRKYGKSLYYYIQQDTKGDYQKALLYLCGGDDYPYDVPDYA
# B3: AnxA2 77RRTKK>AATAK (HA-tagged) (other)
# chain: B1 chain with A81K
# notes: also called 77AATAK81
# B4: AnxA2 Δ49-61-HA (other)
# chain: MSTVHEILCKLSLEGDHSTPPSAYGSVKAYTNFDAERDALNIETAIKTNRSNAQRQDIAFAYQRRTKKELASALKSALSGHLETVILGLLKTPAQYDASELKASMKGLGTDEDSLIEIICSRTNQELQEINRVYKEMYKTDLEKDIISDTSGDFRKLMVALAKGRRAEDGSVIDYELIDQDARDLYDAGVKRKGTDVPKWISIMTERSVPHLQKVFDRYKSYSPYDMLESIRKEVKGDLENAFLNLVQCIQNKPLYFADRLYDSMKGKGTRDKVLIRIMVSRSEVDMLKIRSEFKRKYGKSLYYYIQQDTKGDYQKALLYLCGGDDYPYDVPDYA
# B5: AnxA2 77…>77AATAAELASALA (HA-tagged) (other)
# chain: B1 chain with K88A
# B6: AnxA2 80KKELA>GKPLD (HA-tagged) (other)
# chain: B1 chain with A77R, A78R, A80G, A81K, E82P, A84D
# notes: also called 80KKELA84 replaced with AnxA1 loop 89GKPLD93
# B7: AnxA2 Δ37-66-HA (other)
# chain: MSTVHEILCKLSLEGDHSTPPSAYGSVKAYTNFDAEQRQDIAFAYQRRTKKELASALKSALSGHLETVILGLLKTPAQYDASELKASMKGLGTDEDSLIEIICSRTNQELQEINRVYKEMYKTDLEKDIISDTSGDFRKLMVALAKGRRAEDGSVIDYELIDQDARDLYDAGVKRKGTDVPKWISIMTERSVPHLQKVFDRYKSYSPYDMLESIRKEVKGDLENAFLNLVQCIQNKPLYFADRLYDSMKGKGTRDKVLIRIMVSRSEVDMLKIRSEFKRKYGKSLYYYIQQDTKGDYQKALLYLCGGDDYPYDVPDYA
# B8: AnxA2 K28S+D34N+E36S (HA-tagged) (other)
# chain: B1 chain with K28S, D34N, E36S, A77R, A78R, A80K, A81K
# B9: AnxA2 Δ102-108-HA (other)
# chain: MSTVHEILCKLSLEGDHSTPPSAYGSVKAYTNFDAERDALNIETAIKTKGVDEVTIVNILTNRSNAQRQDIAFAYQRRTKKELASALKSALSGHLETVILGYDASELKASMKGLGTDEDSLIEIICSRTNQELQEINRVYKEMYKTDLEKDIISDTSGDFRKLMVALAKGRRAEDGSVIDYELIDQDARDLYDAGVKRKGTDVPKWISIMTERSVPHLQKVFDRYKSYSPYDMLESIRKEVKGDLENAFLNLVQCIQNKPLYFADRLYDSMKGKGTRDKVLIRIMVSRSEVDMLKIRSEFKRKYGKSLYYYIQQDTKGDYQKALLYLCGGDDYPYDVPDYA
# B10: AnxA2 Δ74-88-HA (other)
# chain: MSTVHEILCKLSLEGDHSTPPSAYGSVKAYTNFDAERDALNIETAIKTKGVDEVTIVNILTNRSNAQRQDIAFSALSGHLETVILGLLKTPAQYDASELKASMKGLGTDEDSLIEIICSRTNQELQEINRVYKEMYKTDLEKDIISDTSGDFRKLMVALAKGRRAEDGSVIDYELIDQDARDLYDAGVKRKGTDVPKWISIMTERSVPHLQKVFDRYKSYSPYDMLESIRKEVKGDLENAFLNLVQCIQNKPLYFADRLYDSMKGKGTRDKVLIRIMVSRSEVDMLKIRSEFKRKYGKSLYYYIQQDTKGDYQKALLYLCGGDDYPYDVPDYA
# B11: AnxA2 Δ62-75-HA (other)
# chain: MSTVHEILCKLSLEGDHSTPPSAYGSVKAYTNFDAERDALNIETAIKTKGVDEVTIVNILTQRRTKKELASALKSALSGHLETVILGLLKTPAQYDASELKASMKGLGTDEDSLIEIICSRTNQELQEINRVYKEMYKTDLEKDIISDTSGDFRKLMVALAKGRRAEDGSVIDYELIDQDARDLYDAGVKRKGTDVPKWISIMTERSVPHLQKVFDRYKSYSPYDMLESIRKEVKGDLENAFLNLVQCIQNKPLYFADRLYDSMKGKGTRDKVLIRIMVSRSEVDMLKIRSEFKRKYGKSLYYYIQQDTKGDYQKALLYLCGGDDYPYDVPDYA
# B12: AnxA2 Δ89-101-HA (other)
# chain: MSTVHEILCKLSLEGDHSTPPSAYGSVKAYTNFDAERDALNIETAIKTKGVDEVTIVNILTNRSNAQRQDIAFAYQRRTKKELASALKLLKTPAQYDASELKASMKGLGTDEDSLIEIICSRTNQELQEINRVYKEMYKTDLEKDIISDTSGDFRKLMVALAKGRRAEDGSVIDYELIDQDARDLYDAGVKRKGTDVPKWISIMTERSVPHLQKVFDRYKSYSPYDMLESIRKEVKGDLENAFLNLVQCIQNKPLYFADRLYDSMKGKGTRDKVLIRIMVSRSEVDMLKIRSEFKRKYGKSLYYYIQQDTKGDYQKALLYLCGGDDYPYDVPDYA
# B13: AnxA2 Δ82-88-HA (other)
# chain: MSTVHEILCKLSLEGDHSTPPSAYGSVKAYTNFDAERDALNIETAIKTKGVDEVTIVNILTNRSNAQRQDIAFAYQRRTKKSALSGHLETVILGLLKTPAQYDASELKASMKGLGTDEDSLIEIICSRTNQELQEINRVYKEMYKTDLEKDIISDTSGDFRKLMVALAKGRRAEDGSVIDYELIDQDARDLYDAGVKRKGTDVPKWISIMTERSVPHLQKVFDRYKSYSPYDMLESIRKEVKGDLENAFLNLVQCIQNKPLYFADRLYDSMKGKGTRDKVLIRIMVSRSEVDMLKIRSEFKRKYGKSLYYYIQQDTKGDYQKALLYLCGGDDYPYDVPDYA
# B14: AnxA2 Δ37-48-HA (other)
# chain: MSTVHEILCKLSLEGDHSTPPSAYGSVKAYTNFDAEKGVDEVTIVNILTNRSNAQRQDIAFAYQRRTKKELASALKSALSGHLETVILGLLKTPAQYDASELKASMKGLGTDEDSLIEIICSRTNQELQEINRVYKEMYKTDLEKDIISDTSGDFRKLMVALAKGRRAEDGSVIDYELIDQDARDLYDAGVKRKGTDVPKWISIMTERSVPHLQKVFDRYKSYSPYDMLESIRKEVKGDLENAFLNLVQCIQNKPLYFADRLYDSMKGKGTRDKVLIRIMVSRSEVDMLKIRSEFKRKYGKSLYYYIQQDTKGDYQKALLYLCGGDDYPYDVPDYA
# Molecular target: T1, PCSK9-V5 (full-length human PCSK9 with C-terminal V5 tag) (human, UniProt Q8NBP7 31-692)
# T1 construct: Used as conditioned medium of CHO-K1 cells (Far Western, pull-down) or co-expressed in cells (co-IP); The background says PCSK9 is secreted as a prosegment-PCSK9 heterodimer; also called full-length (FL) PCSK9-V5; native PCSK9; not shown: C-terminal V5 tag
# T1 sequence (Q8NBP7 31-692 limits assumed): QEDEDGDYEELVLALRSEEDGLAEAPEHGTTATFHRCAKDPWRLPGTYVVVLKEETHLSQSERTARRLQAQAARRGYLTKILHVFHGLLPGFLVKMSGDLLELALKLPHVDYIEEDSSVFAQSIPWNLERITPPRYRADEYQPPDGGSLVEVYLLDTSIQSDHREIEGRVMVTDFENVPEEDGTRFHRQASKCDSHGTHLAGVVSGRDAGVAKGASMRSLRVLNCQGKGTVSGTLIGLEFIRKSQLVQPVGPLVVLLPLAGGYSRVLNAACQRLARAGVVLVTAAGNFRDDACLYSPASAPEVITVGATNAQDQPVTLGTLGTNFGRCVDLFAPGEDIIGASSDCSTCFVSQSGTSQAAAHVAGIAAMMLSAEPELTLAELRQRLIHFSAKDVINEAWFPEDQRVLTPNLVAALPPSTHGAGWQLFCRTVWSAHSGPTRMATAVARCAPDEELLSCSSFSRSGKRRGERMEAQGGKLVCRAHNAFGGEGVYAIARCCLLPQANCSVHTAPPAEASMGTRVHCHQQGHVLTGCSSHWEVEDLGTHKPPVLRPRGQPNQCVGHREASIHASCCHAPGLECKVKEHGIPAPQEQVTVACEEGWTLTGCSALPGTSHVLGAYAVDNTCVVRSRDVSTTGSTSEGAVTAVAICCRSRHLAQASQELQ
# Assay: Far Western blot of HEK293 lysates
row,binding result,Binder
1,no binding,B1
2,no binding,B2
3,no binding,B3
4,no binding,B4
5,no binding,B5
6,binds,B6
7,no binding,B7
8,binds,B8
9,no binding,B9
10,no binding,B10
11,no binding,B11
12,no binding,B12
13,no binding,B13
14,no binding,B14
